Source: patent US20260132180

Legend:
[1] = system: Pro101
[2] = system: Pro061
[3] = system: Pro054
[4] = system: Pro064
[5] = system: Pro055

MMP-2 protease, sequence (P08253 110-660): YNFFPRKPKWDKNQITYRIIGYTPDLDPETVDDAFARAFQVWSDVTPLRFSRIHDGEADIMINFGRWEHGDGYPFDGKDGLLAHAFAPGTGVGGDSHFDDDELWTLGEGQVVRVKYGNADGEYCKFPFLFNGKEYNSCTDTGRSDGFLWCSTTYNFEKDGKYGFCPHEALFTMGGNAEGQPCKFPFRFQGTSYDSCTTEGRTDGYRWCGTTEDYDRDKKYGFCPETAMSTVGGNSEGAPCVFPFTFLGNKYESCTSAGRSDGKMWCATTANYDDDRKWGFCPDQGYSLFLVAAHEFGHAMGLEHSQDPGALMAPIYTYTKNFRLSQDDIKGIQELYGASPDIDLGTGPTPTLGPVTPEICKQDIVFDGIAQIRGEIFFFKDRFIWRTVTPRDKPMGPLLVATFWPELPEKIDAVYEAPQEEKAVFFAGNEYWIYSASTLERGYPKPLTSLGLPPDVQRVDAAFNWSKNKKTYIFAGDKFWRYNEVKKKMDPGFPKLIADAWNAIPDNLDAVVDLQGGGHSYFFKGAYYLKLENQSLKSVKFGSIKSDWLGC
Pro061, sequence (chain, as listed by the source): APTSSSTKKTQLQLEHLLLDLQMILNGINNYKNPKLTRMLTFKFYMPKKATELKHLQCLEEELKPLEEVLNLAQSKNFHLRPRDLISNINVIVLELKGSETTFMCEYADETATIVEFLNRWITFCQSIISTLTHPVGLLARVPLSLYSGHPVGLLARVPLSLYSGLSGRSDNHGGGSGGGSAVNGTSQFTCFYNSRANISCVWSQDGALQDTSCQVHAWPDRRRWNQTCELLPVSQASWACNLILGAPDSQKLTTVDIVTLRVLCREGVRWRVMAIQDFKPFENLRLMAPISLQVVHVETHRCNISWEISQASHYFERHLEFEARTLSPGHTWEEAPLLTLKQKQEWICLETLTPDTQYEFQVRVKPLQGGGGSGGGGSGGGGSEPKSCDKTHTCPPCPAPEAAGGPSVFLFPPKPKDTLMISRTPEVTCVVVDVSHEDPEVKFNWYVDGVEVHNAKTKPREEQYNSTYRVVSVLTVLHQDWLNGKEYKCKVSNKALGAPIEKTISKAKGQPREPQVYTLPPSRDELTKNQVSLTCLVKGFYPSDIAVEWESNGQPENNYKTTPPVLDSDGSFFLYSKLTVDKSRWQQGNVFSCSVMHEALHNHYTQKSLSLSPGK
Pro054, sequence (chain, as listed by the source): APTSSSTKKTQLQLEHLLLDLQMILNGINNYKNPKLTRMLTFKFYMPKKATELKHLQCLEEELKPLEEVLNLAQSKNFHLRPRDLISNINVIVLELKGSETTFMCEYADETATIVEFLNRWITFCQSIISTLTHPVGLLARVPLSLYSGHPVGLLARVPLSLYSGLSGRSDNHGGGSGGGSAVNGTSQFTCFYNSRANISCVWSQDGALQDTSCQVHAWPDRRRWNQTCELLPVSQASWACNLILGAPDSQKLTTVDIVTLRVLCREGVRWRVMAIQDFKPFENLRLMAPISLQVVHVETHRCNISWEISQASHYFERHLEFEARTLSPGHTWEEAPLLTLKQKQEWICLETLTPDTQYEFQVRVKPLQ
Pro064, sequence (chain, as listed by the source): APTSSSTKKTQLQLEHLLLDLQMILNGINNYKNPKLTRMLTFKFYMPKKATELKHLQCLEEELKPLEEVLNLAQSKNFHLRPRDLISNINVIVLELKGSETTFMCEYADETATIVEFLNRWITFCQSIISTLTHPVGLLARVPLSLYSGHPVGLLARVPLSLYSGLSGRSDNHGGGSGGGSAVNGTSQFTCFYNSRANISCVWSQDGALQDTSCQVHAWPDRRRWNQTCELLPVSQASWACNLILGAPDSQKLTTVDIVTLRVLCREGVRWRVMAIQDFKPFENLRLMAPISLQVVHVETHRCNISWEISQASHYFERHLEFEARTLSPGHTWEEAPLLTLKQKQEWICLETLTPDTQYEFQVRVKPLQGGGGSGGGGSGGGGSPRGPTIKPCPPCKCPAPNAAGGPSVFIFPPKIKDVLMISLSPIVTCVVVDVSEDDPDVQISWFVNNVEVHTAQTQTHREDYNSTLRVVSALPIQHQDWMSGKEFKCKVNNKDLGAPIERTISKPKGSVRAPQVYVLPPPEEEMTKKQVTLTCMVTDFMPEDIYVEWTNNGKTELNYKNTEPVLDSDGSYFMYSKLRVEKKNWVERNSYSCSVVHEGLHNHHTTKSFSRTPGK

For MMP-2 protease, the “Fraction of cleaved Pro101 determined by WB” value [1] was “effective linker cleavage in Pro101”, the “Percentage of cleaved protein determined using WB after incubation with activated MMP-2 protease” value (“Percentage of cleaved protein determined” below) [2] was “Pro054, Pro055, Pro061, and Pro064 were sensitive to MMP-2 digestion and protease-dependent removal of masking and half-life extension domains” and the “Percentage of cleaved protein determined” value [3] was “Pro054, Pro055, Pro061, and Pro064 were sensitive to MMP-2 digestion and protease-dependent removal of masking and half-life extension domains”. The “Percentage of cleaved protein determined” value [4] was “Pro054, Pro055, Pro061, and Pro064 were sensitive to MMP-2 digestion and protease-dependent removal of masking and half-life extension domains” and the “Percentage of cleaved protein determined” value [5] was “Pro054, Pro055, Pro061, and Pro064 were sensitive to MMP-2 digestion and protease-dependent removal of masking and half-life extension domains”.
